Data from paper PMC5775257, “Binding of NUFIP2 to Roquin promotes recognition and regulation of ICOS mRNA” (Nature Communications, 2018).

T1: mouse Roquin-1 (aa 2–441) (mouse, UniProt Q4VGL6 2-441)
T1 construct: mouse Roquin-1 aa 2-441; also called Roquin (aa 2–441)
T1 sequence (looked up): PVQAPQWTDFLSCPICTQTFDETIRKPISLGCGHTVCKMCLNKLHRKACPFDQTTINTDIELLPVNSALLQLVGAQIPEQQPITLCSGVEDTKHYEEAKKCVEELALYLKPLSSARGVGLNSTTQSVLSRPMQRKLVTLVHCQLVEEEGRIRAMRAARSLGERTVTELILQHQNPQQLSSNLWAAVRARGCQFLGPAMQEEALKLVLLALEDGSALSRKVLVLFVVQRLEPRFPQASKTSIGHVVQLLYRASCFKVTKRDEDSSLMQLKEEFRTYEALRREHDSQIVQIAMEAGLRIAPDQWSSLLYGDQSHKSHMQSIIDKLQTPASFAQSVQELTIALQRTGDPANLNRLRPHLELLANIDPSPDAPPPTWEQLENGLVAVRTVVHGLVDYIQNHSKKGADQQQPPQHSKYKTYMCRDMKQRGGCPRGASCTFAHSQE

B1: human NUFIP2 (aa 255–411) (domain or fragment, UniProt Q7Z417 255-411, looked up)
chain: KQGLETFKPDYSEQKGNRVDGSKPIWKYETGPGGTSRGKPAVGDMLRKSSDSKPGVSSKKFDDRPKGKHASAVASKEDSWTLFKPPPVFPVDNSSAKIVPKISYASKVKENLNKTIQNSSVSPTSSSSSSSSTGETQTQSSSRLSQVPMSALKSVTS
notes: His6-SUMO cleaved off by PreScission protease; source: E. coli BL21(DE3)pRIL, purified (HisTrap, ion exchange, Superdex 75); not shown: His6-SUMO, N-terminal, cleaved

What was measured:
[1] = target: B1; test: SPR; BIACORE 3000; Roquin (aa 2–441) immobilised; 4 μM NUFIP2 (aa 255–411) injected together with 0.016, 0.063, 0.25 or 1 μM FMRP (aa 1–132); 250 mM NaCl, 0.05% Tween20, 10 mM HEPES; settings: both partners purified
[2] = target: T1, mouse Roquin-1 (aa 2–441); test: SPR; BIACORE 3000; Roquin (aa 2–441) immobilised on CM5 chip by amine coupling; NUFIP2 (aa 255–411) injected at 0.063-4 μM, 30 μL/min, 20 °C; 150 mM NaCl, 0.05% Tween20, 10 mM HEPES; steady-state analysis; settings: both partners purified

binding result [1]	Kd [2] [nM]	Binder
binds	–	mouse Fmrp (aa 1–132) (domain or fragment, His6-GST cut off by PreScission protease; source: E. coli BL21Star(DE3), purified (HisTrap, GSTTrap, Superdex 75); not shown: His6-GST, N-terminal, cleaved) not shown
–	182	B1
